Test results taken from publication PMC9265717.

Molecular target: toll-like receptor 5 (TLR5) (human (endogenous in MDA-MB-468 and MDA-MB-231)) (UniProt O60602)
UniProt O60602, sequence (O60602 21-858): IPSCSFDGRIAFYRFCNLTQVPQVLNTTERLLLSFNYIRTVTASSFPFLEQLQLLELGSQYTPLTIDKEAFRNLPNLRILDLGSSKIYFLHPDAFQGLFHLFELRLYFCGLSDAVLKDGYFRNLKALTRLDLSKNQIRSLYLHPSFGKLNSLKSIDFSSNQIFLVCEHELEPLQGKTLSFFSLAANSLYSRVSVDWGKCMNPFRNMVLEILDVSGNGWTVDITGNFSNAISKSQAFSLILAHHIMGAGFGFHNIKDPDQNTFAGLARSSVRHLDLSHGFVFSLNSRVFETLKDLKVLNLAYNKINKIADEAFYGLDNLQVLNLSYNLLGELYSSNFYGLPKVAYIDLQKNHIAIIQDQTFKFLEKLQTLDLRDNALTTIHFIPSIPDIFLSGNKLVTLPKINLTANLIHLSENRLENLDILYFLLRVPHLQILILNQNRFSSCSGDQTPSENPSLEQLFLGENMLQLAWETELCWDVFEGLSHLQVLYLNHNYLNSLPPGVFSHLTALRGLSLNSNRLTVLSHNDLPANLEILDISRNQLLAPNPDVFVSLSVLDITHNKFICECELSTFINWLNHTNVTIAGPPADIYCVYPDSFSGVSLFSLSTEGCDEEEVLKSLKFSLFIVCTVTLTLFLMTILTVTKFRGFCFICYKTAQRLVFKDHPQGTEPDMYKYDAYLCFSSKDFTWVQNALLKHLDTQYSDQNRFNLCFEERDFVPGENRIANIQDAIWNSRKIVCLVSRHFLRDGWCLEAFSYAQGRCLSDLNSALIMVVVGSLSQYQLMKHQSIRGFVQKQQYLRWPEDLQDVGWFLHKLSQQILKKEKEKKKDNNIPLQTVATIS

Q: For “fibronectin EDA (FnEDA) domain (domain or fragment)”, which percent of IL-8 release (ELISA) by MDA-MB-231 cells in response to FnEDA (5 µM) that is inhibited by a blocking antibody to TLR5 is on record?
A: Its percent of IL-8 release (ELISA) by MDA-MB-231 cells in response to FnEDA (5 µM) that is inhibited by a blocking antibody to TLR5 is 30%.
